Test results from paper PMC9520665, “Chaperonin containing TCP-1 (CCT/TRiC) is a novel therapeutic and diagnostic target for neuroblastoma” (Frontiers in Oncology, 2022).
Where no end group is shown, it is not given here.

Assays:
[1] = target: T1, CCT2(17-526) (human, UniProt P78371-1 17-526); assay: pull-down; 0.1-50 nmol biotin-CT20p (or biotin alone) mixed with 0.1 nmol recombinant CCT2 protein in 20 mM Tris-HCl, 3 h at room temperature, then overnight at 4°C with streptavidin-agarose beads; immunoblot for CCT2; conditions: both partners purified
T1 construct: CCT2 truncation that retains more of the equatorial domain; A TEV protease site replaced the thrombin site between GST and CCT2
T1 sequence (looked up): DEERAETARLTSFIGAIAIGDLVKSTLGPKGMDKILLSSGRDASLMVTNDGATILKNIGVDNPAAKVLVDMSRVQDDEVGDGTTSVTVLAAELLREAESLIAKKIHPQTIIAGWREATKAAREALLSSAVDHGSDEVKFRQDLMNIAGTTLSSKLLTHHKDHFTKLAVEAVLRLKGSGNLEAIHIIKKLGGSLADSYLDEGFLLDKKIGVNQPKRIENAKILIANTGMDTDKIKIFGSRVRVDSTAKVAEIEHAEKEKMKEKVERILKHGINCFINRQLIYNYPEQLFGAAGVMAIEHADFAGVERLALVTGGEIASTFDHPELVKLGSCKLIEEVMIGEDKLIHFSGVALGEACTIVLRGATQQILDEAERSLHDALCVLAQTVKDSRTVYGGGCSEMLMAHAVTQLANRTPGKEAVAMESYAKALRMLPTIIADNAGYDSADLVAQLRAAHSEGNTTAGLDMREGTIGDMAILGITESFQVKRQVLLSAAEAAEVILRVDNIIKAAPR

[2] = target: T2, full-length HIS-CCT2 (human, UniProt P78371-1 1-535); assay: as above; conditions: both partners purified
T2 construct: CCT2, second subunit of chaperonin containing TCP-1 (CCT/TRiC); The species is stated for CCT2 in general (human), not for the recombinant construct; also called recombinant full-length CCT2 protein; CCTβ; source: E. coli BL21 (DE3) and Rosetta, purified (Ni-NTA, SEC)
T2 sequence (looked up): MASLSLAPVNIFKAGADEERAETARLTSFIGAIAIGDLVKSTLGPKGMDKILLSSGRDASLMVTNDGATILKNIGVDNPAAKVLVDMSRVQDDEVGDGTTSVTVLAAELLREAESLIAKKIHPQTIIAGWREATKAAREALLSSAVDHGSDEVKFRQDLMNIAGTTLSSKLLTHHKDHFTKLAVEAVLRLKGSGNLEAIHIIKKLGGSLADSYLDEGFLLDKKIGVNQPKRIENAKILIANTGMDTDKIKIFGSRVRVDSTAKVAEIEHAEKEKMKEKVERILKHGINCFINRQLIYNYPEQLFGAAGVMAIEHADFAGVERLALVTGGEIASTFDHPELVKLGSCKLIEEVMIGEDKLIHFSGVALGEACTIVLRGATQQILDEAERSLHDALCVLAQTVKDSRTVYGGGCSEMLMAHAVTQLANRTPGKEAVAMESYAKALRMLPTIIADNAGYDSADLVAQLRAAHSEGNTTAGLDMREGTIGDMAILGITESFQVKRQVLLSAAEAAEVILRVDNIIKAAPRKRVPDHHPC

B1: biotinylated CT20p (peptide)
peptide: VTIFVAGVLTASLTIWKKMG
modifications: also: biotin, position not given here
notes: 20 amino acid amphipathic peptide derived from the C-terminus of the apoptotic protein Bax; also called biotin-CT20p; source: synthetic peptide, commercially synthesized (BioPeptides Inc)
- binding result [1]: binds
- binding result [2]: binds
